In IntAct's records for PubMed 12679424:

B1: Insulin receptor substrate 1 (Homo sapiens), P35568 (parent)
chain: MASPPESDGFSDVRKVGYLRKPKSMHKRFFVLRAASEAGGPARLEYYENEKKWRHKSSAPKRSIPLESCFNINKRADSKNKHLVALYTRDEHFAIAADSEAEQDSWYQALLQLHNRAKGHHDGAAALGAGGGGGSCSGSSGLGEAGEDLSYGDVPPGPAFKEVWQVILKPKGLGQTKNLIGIYRLCLTSKTISFVKLNSEAAAVVLQLMNIRRCGHSENFFFIEVGRSAVTGPGEFWMQVDDSVVAQNMHETILEAMRAMSDEFRPRSKSQSSSNCSNPISVPLRRHHLNNPPPSQVGLTRRSRTESITATSPASMVGGKPGSFRVRASSDGEGTMSRPASVDGSPVSPSTNRTHAHRHRGSARLHPPLNHSRSIPMPASRCSPSATSPVSLSSSSTSGHGSTSDCLFPRRSSASVSGSPSDGGFISSDEYGSSPCDFRSSFRSVTPDSLGHTPPARGEEELSNYICMGGKGPSTLTAPNGHYILSRGGNGHRCTPGTGLGTSPALAGDEAASAADLDNRFRKRTHSAGTSPTITHQKTPSQSSVASIEEYTEMMPAYPPGGGSGGRLPGHRHSAFVPTRSYPEEGLEMHPLERRGGHHRPDSSTLHTDDGYMPMSPGVAPVPSGRKGSGDYMPMSPKSVSAPQQIINPIRRHPQRVDPNGYMMMSPSGGCSPDIGGGPSSSSSSSNAVPSGTSYGKLWTNGVGGHHSHVLPHPKPPVESSGGKLLPCTGDYMNMSPVGDSNTSSPSDCYYGPEDPQHKPVLSYYSLPRSFKHTQRPGEPEEGARHQHLRLSTSSGRLLYAATADDSSSSTSSDSLGGGYCGARLEPSLPHPHHQVLQPHLPRKVDTAAQTNSRLARPTRLSLGDPKASTLPRAREQQQQQQPLLHPPEPKSPGEYVNIEFGSDQSGYLSGPVAFHSSPSVRCPSQLQPAPREEETGTEEYMKMDLGPGRRAAWQESTGVEMGRLGPAPPGAASICRPTRAVPSSRGDYMTMQMSCPRQSYVDTSPAAPVSYADMRTGIAAEEVSLPRATMAAASSSSAASASPTGPQGAAELAAHSSLLGGPQGPGGMSAFTRVNLSPNRNQSAKVIRADPQGCRRRHSSETFSSTPSATRVGNTVPFGAGAAVGGGGGSSSSSEDVKRHSSASFENVWLRPGELGGAPKEPAKLCGAAGGLENGLNYIDLDLVKDFKQCPQECTPEPQPPPPPPPHQPLGSGESSSTRRSSEDLSAYASISFQKQPEDRQ

Variants of: B1
Details: with p85a_mouse Pik3r1, P26450
p85a_mouse Pik3r1, P26450, sequence (P26450 whole entry): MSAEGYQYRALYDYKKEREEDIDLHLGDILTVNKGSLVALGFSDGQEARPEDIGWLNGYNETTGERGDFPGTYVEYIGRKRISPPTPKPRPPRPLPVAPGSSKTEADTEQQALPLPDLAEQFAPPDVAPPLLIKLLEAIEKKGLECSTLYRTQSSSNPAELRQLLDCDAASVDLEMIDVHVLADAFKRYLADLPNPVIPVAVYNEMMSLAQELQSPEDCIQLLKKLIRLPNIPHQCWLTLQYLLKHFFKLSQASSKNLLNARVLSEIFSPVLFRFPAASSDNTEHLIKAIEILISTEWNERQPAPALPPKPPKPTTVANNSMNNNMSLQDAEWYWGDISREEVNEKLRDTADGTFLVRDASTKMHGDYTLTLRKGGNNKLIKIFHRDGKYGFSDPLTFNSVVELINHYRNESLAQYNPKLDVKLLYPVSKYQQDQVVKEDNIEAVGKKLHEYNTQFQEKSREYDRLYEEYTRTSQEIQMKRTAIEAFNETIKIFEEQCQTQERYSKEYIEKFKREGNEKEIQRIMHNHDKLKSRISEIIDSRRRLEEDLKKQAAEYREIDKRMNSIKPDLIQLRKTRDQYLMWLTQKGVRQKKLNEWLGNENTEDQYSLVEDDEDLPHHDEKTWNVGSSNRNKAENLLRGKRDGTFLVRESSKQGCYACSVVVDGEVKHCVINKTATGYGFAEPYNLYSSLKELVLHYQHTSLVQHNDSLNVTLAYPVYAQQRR

| effect of a mutation on the interaction | Variant |
| --- | --- |
| decreasing interaction | T608R |
